Earlier results in patent publication US12305200B2, “Methods and compositions for vault nanoparticle immobilization of therapeutic molecules and for vault targeting” (AUKERA, INC., priority 2017, dated 2025).

Target: GRP-R (Homo sapiens, UniProt P30550)
Conditions: Accardo et al., EJNMMI Research 2016

Chain of GRP-R (P30550 whole entry): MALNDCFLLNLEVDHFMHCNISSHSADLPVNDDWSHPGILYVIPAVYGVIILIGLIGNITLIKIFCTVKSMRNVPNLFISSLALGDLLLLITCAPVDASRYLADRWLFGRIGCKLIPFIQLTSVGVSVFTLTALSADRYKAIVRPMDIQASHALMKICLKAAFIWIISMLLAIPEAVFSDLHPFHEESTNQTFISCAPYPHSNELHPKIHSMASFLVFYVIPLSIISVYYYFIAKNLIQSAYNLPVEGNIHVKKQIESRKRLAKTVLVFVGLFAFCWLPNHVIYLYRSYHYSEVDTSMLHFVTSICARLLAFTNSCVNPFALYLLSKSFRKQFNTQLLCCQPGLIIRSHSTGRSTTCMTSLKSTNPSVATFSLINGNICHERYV

Substance: Gin-Trp-Ala-Val-Gly-His-Leu-Met (SEQ ID NO.: 3)-NH2 [8-amino acid peptide of the ligand GRP]
- affinity for the GRP-R: has been found to have affinity
